# Data published in patent US20180311371A1 (Hoffmann-La Roche, published 2018).
# T1: human TPBG (trophoblast glycoprotein), full length, cell surface expressed (human, UniProt Q13641 32-420)
# T1 construct: On MCF7, H1975 and BxPC-3 tumour cells, on SW620 clone 4 and on CHO-K1 cells transfected with full length human TPBG; also called huTPBG; 5T4
# T1 sequence: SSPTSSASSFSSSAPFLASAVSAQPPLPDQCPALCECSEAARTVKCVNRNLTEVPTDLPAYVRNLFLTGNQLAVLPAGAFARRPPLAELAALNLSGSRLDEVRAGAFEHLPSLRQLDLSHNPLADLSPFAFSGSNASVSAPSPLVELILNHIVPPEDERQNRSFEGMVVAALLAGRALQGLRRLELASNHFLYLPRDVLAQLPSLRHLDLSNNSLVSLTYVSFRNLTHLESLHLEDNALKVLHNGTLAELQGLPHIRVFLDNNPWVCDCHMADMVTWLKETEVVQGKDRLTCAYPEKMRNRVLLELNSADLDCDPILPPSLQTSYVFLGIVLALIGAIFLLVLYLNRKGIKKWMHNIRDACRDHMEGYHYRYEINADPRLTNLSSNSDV
# T2: cynomolgus TPBG extracellular domain, His6Avi, biotinylated (cynomolgus, biotinylated)
# T2 construct: also called cyTPBG; cyno TPBG-AviHis
# T2 chain: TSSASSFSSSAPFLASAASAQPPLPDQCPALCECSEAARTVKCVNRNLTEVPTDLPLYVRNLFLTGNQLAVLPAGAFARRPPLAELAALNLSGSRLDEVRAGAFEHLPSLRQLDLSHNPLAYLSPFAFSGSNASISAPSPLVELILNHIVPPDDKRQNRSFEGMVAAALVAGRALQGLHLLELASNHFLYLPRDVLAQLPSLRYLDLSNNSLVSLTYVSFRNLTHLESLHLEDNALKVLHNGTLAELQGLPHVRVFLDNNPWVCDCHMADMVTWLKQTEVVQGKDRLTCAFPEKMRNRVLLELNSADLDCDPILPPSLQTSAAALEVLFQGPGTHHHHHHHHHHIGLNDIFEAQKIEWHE
# T3: minipig TPBG extracellular domain, His6Avi, biotinylated (minipig, biotinylated)
# T3 construct: also called mpTPBG; minipig TPBG-AviHis
# T3 chain: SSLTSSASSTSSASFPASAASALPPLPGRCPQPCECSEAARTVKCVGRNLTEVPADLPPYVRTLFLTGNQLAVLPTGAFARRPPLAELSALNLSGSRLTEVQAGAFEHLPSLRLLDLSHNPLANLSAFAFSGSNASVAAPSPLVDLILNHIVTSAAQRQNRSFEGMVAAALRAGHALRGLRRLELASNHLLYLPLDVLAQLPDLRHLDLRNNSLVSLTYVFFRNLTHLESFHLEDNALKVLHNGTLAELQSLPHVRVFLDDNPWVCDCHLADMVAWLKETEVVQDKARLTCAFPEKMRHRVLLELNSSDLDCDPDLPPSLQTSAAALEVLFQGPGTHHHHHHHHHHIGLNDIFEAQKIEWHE
# B1: anti-TPBG antibody 091, Fab fragment (Fab, V domains shown)
# VH: EVHLLESGGGLVHPGGSLRLSCAASGFTFRSDAMHWVRQAPGKGLEWVSGVSGSGGSPYYADSVKGRFTISRDDSKTTLYLQMNSLRAEDTAVYYCATGGSIAGSYYYYPMDVWGQGTTVTVSS
# VL: DIQMTQSPSSLSASVGDRVTITCQASQDISNYLNWYQQKPGKAPKLLIYAASTLQIGVPSRFSGSGSGTDFTFTISSLQPEDFATYYCQQANSFPLTFGGGTKVEIK
# notes: also called Fab2
# Tests used:
# [1] = target: T1, human TPBG (trophoblast glycoprotein), …; test: cell ELISA on MCF7 cells; titrated from 5 µg/ml
# [2] = target: T2, cynomolgus TPBG extracellular domain, …; test: ELISA; biotinylated TPBG-AviHis on streptavidin plate; Fab titrated from 2 µg/ml
# [3] = target: T3, minipig TPBG extracellular domain, …; test: as above
binder,measurement,setting,value
B1,EC50,[1],0.014 µg/mL
same,EC50,[2],1.23 µg/mL
same,EC50,[3],0.0618 µg/mL
